From patent US20220363778A1 (RESEARCH FOUNDATION FOR THE STATE UNIVERSITY OF NEW YORK, published 2022) come the findings set out here.

Experiment [1] deals with T1, mouse serum albumin (MSA) (MyBioSource, MBS135633) (mouse, UniProt P07724 25-608, limits assumed).
T1 construct: Immobilised on the SPR chip for kinetics
Briefly: SPR, mouse serum albumin immobilised on the chip, 2Rs15d-ColH-ABD injected at 7.5-60 nM, 10 min dissociation, 1:1 Langmuir fit in Scrubber. On the procedure: (§1) Surface plasmon resonance (SPR) was performed using a Reichert SR7500DC SPR and SR8100 autosampler (Reichert, Depew, N.Y.). HER2-Fc (Sino Biological, Beijing, China, 10004-H02H) or mouse serum albumin (MSA) (MyBioSource, San Diego, Calif., MBS135633) was immobilized onto a carboxymethyl dextran SPR chip (Reichert, Depew, N.Y., 13206066) using 1-Ethyl-3-(3-dimethylaminopropyl)carbodiimide/N-hydroxysuccinimide linker chemistry. A mobile phase of PBS 0.05% Tween-20 at a flow rate of 25 μL/min was used for all binding evaluations. Fusion protein dilutions were injected for 90 seconds, and the chip regenerated following dissociation with a 2-minute injection of a 10 millimolar (mM) glycine buffer pH 1.5. […] The observed sensor-grams were fit to a 1:1 Langmuir binding model in the Scrubber analysis software to obtain the association rate constant (kon), dissociation rate constant (koff), and the equilibrium dissociation constant (KD).
(In general: In SPR one partner is held on a chip, and binding of the other changes the refractive index at the surface.)

Experiment [2] has as its target T1, mouse serum albumin (MSA) (MyBioSource, …). Briefly: SPR, mouse serum albumin injected at about 400 s over 2Rs15d-ColH held on a HER2-Fc chip. The source says: Surface plasmon resonance was used to assess HER2 and MSA binding.
Experiment [3] addresses T2, HER2-Fc (Sino Biological, 10004-H02H) (UniProt P04626 23-652).
T2 construct: Bought reagent, immobilised on a carboxymethyl dextran SPR chip by EDC/NHS; not shown: Fc portion of the bought reagent
Briefly: SPR, HER2-Fc immobilised, 1:1 Langmuir fit.

Experiment [4] deals with T1, mouse serum albumin (MSA) (MyBioSource, …). As to the kind of experiment: SPR, mouse serum albumin immobilised on the chip, 2Rb17c-ColH-ABD injected at 7.5-75 nM, 10 min dissociation, 1:1 Langmuir fit in Scrubber. How it is done: as §1

B1: 2Rs15d-ColH-ABD fusion protein (other)
chain: QVQLQESGGGSVQAGGSLKLTCAASGYIFNSCGMGWYRQSPGRERELVSRISGDGDTWHKESVKGRFTISQDNVKKTLYLQMNSLKPEDTAVYFCAVCYNLETYWGQGTQVTVSSGGGSGGGSGGGSVQNESKRYTVSYLKTLNYYDLVDLLVKTEIENLPDLFQYSSDAKEFYGNKTRMSFIMDEIGRRAPQYTEIDHKGIPTLVEVVRAGFYLGFHNKELNEINKRSFKERVIPSILAIQKNPNFKLGTEVQDKIVSATGLLAGNETAPPEVVNNFTPILQDCIKNIDRYALDDLKSKALFNVLAAPTYDITEYLRATKEKPENTPWYGKIDGFINELKKLALYGKINDNNSWIIDNGIYHIAPLGKLHSNNKIGIETLTEVMKVYPYLSMQHLQSADQIKRHYDSKDAEGNKIPLDKFKKEGKEKYCPKTYTFDDGKVIIKAGARVEEEKVKRLYWASKEVNSQFFRVYGIDKPLEEGNPDDILTMVIYNSPEEYKLNSVLYGYDTNNGGMYIEPEGTFFTYEREAQESTYTLEELFRHEYTHYLQGRYAVPGQWGRTKLYDNDRLTWYEEGGAELFAGSTRTSGILPRKSIVSNIHNTTRNNRYKLSDTVHSKYGASFEFYNYACMFMDYMYNKDMGILNKLNDLAKNNDVDGYDNYIRDLSSNYALNDKYQDHMQERIDNYENLTVPFVADDYLVRHAYKNPNEIYSEISEVAKLKDAKSEVKKSQYFSTFTLRGSYTGGASKGKLEDQKAMNKFIDDSLKKLDTYSWSGYKTLTAYFTNYKVDSSNRVTYDVVFHGYLPNEGDSKNSLPYGKINGTYKGTEKEKIKFSSEGSFDPDGKIVSYEWDFGDGNKSNEENPEHSYDKVGTYTVKLKVTDDKGESSVSTTTAEIKDLSENKLPVIYMHVPKSGALNQKVVFYGKGTYDPDGSIAGYQWDFGDGSDFSSEQNPSHVYTKKGEYTVTLRVMDSSGQMSEKTMKIKITDPVYPIGTEKEPNNSKETASGPIVPGIPVSGTIENTSDQDYFYFDVITPGEVKIDINKLGYGGATWVVYDENNNAVSYATDDGQNLSGKFKADKPGRYYIHLYMFNGSYMPYRINIEGGGSGGGSLEVLFQGPGGGSLAEAKVLANRELDKYGVSDFYKRLINKAKTVEGVEALKLHILAALPHHHHHH
notes: The text says (G4S)3 linkers and a TEV site; also called 2Rs15d-ColH-ABD035
As a reminder, the Kd is the equilibrium constant for the complex coming apart. Higher therefore signals lower affinity. For B1, the equilibrium dissociation constant (Kd) in experiment [1] is 1.5 nM.

B2: 2Rs15d-ColH fusion protein (2Rs15d-Clostridial Collagenase H fusion protein) (other)
chain: QVQLQESGGGSVQAGGSLKLTCAASGYIFNSCGMGWYRQSPGRERELVSRISGDGDTWHKESVKGRFTISQDNVKKTLYLQMNSLKPEDTAVYFCAVCYNLETYWGQGTQVTVSSGGGGSGGGGSGGGGSVQNESKRYTVSYLKTLNYYDLVDLLVKTEIENLPDLFQYSSDAKEFYGNKTRMSFIMDEIGRRAPQYTEIDHKGIPTLVEVVRAGFYLGFHNKELNEINKRSFKERVIPSILAIQKNPNFKLGTEVQDKIVSATGLLAGNETAPPEVVNNFTPILQDCIKNIDRYALDDLKSKALFNVLAAPTYDITEYLRATKEKPENTPWYGKIDGFINELKKLALYGKINDNNSWIIDNGIYHIAPLGKLHSNNKIGIETLTEVMKVYPYLSMQHLQSADQIKRHYDSKDAEGNKIPLDKFKKEGKEKYCPKTYTFDDGKVIIKAGARVEEEKVKRLYWASKEVNSQFFRVYGIDKPLEEGNPDDILTMVIYNSPEEYKLNSVLYGYDTNNGGMYIEPEGTFFTYEREAQESTYTLEELFRHEYTHYLQGRYAVPGQWGRTKLYDNDRLTWYEEGGAELFAGSTRTSGILPRKSIVSNIHNTTRNNRYKLSDTVHSKYGASFEFYNYACMFMDYMYNKDMGILNKLNDLAKNNDVDGYDNYIRDLSSNYALNDKYQDHMQERIDNYENLTVPFVADDYLVRHAYKNPNEIYSEISEVAKLKDAKSEVKKSQYFSTFTLRGSYTGGASKGKLEDQKAMNKFIDDSLKKLDTYSWSGYKTLTAYFTNYKVDSSNRVTYDVVFHGYLPNEGDSKNSLPYGKINGTYKGTEKEKIKFSSEGSFDPDGKIVSYEWDFGDGNKSNEENPEHSYDKVGTYTVKLKVTDDKGESSVSTTTAEIKDLSENKLPVIYMHVPKSGALNQKVVFYGKGTYDPDGSIAGYQWDFGDGSDFSSEQNPSHVYTKKGEYTVTLRVMDSSGQMSEKTMKIKITDPVYPIGTEKEPNNSKETASGPIVPGIPVSGTIENTSDQDYFYFDVITPGEVKIDINKLGYGGATWVVYDENNNAVSYATDDGQNLSGKFKADKPGRYYIHLYMFNGSYMPYRINIELEHHHHHH
notes: Fusion of a VHH (sdAb), a linker, Clostridium collagenase H and a His6 tag, expressed in E. coli SHuffle; also called targeted collagenase; anti-HER2-collagenase fusion protein
Take B2: the binding result in experiment [2] is recorded as “no binding”.

B3: 2Rb17c-ColH-ABD fusion protein (other)
chain: QVQLQESGGGLVQPGGSLRLSCAASGFIFSNDAMTWVRQAPGKGLEWVSSINWSGTHTNYADSVKGRFTISRDNAKRTLYLQMNSLKDEDTALYYCVTGYGVTKTPTGQGTQVTVSSGGGSGGGSGGGSVQNESKRYTVSYLKTLNYYDLVDLLVKTEIENLPDLFQYSSDAKEFYGNKTRMSFIMDEIGRRAPQYTEIDHKGIPTLVEVVRAGFYLGFHNKELNEINKRSFKERVIPSILAIQKNPNFKLGTEVQDKIVSATGLLAGNETAPPEVVNNFTPILQDCIKNIDRYALDDLKSKALFNVLAAPTYDITEYLRATKEKPENTPWYGKIDGFINELKKLALYGKINDNNSWIIDNGIYHIAPLGKLHSNNKIGIETLTEVMKVYPYLSMQHLQSADQIKRHYDSKDAEGNKIPLDKFKKEGKEKYCPKTYTFDDGKVIIKAGARVEEEKVKRLYWASKEVNSQFFRVYGIDKPLEEGNPDDILTMVIYNSPEEYKLNSVLYGYDTNNGGMYIEPEGTFFTYEREAQESTYTLEELFRHEYTHYLQGRYAVPGQWGRTKLYDNDRLTWYEEGGAELFAGSTRTSGILPRKSIVSNIHNTTRNNRYKLSDTVHSKYGASFEFYNYACMFMDYMYNKDMGILNKLNDLAKNNDVDGYDNYIRDLSSNYALNDKYQDHMQERIDNYENLTVPFVADDYLVRHAYKNPNEIYSEISEVAKLKDAKSEVKKSQYFSTFTLRGSYTGGASKGKLEDQKAMNKFIDDSLKKLDTYSWSGYKTLTAYFTNYKVDSSNRVTYDVVFHGYLPNEGDSKNSLPYGKINGTYKGTEKEKIKFSSEGSFDPDGKIVSYEWDFGDGNKSNEENPEHSYDKVGTYTVKLKVTDDKGESSVSTTTAEIKDLSENKLPVIYMHVPKSGALNQKVVFYGKGTYDPDGSIAGYQWDFGDGSDFSSEQNPSHVYTKKGEYTVTLRVMDSSGQMSEKTMKIKITDPVYPIGTEKEPNNSKETASGPIVPGIPVSGTIENTSDQDYFYFDVITPGEVKIDINKLGYGGATWVVYDENNNAVSYATDDGQNLSGKFKADKPGRYYIHLYMFNGSYMPYRINIEGGGSGGGSLEVLFQGPGGGSLAEAKVLANRELDKYGVSDFYKRLINKAKTVEGVEALKLHILAALPHHHHHH
On to B3, for which the Kd was determined as 17.1 nM in experiment [3] and 1.6 nM in experiment [4].
